Experimental data as given in patent US11976099B2, “Compositions and methods for treatment of bone associated diseases” (THE NATIONAL INSTITUTE FOR BIOTECHNOLOGY IN THE NEGEV LTD., priority 2016, dated 2024).
“Also recorded” adds a separate entry of the source.

T1: murine c-FMS (Mus musculus, UniProt P09581)
T1 construct: endogenous in cells; host or cells: primary bone marrow derived monocytes from wild-type C57BL6 mice
T1 sequence (P09581 20-977): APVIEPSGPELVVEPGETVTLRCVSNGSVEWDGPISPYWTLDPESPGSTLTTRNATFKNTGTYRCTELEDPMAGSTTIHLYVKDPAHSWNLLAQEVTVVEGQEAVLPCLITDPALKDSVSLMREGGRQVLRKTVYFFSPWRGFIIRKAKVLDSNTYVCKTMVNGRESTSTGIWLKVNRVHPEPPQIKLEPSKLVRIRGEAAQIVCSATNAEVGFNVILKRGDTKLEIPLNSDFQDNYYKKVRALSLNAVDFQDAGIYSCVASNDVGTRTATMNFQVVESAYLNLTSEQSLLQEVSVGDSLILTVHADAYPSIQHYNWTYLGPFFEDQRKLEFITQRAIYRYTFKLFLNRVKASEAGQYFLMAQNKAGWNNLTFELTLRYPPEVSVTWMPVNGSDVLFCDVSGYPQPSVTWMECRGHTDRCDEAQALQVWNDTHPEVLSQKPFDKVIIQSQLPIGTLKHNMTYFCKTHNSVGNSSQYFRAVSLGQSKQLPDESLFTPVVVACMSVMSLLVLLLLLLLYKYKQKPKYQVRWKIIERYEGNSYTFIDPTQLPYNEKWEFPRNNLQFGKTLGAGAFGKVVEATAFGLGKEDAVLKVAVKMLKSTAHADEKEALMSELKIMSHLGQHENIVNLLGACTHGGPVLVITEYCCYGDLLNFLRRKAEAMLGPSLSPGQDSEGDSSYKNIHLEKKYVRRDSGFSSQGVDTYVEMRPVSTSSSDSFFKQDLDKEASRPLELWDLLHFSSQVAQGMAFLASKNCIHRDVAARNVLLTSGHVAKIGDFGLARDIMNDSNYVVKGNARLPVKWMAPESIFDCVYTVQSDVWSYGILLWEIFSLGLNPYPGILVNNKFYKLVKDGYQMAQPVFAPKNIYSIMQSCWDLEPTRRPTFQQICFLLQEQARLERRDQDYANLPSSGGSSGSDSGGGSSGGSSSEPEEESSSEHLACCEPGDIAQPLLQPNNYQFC

B1: M-CSFM: 158 amino acid M-CSF with cysteine at position 31 replaced by serine (SEQ ID NO: 2) (protein)
chain: EEVSEYCSHMIGSGHLQSLQRLIDSQMETSSQITFEFVDQEQLKDPVCYLKKAFLLVQDIMEDTMRFRDNTPNAIAIVQLQELSLRLKSCFTKDYEEHDKACVRTFYETPLQLLEKVKNVFNETKNLLDKDWNIFSKNCNNSFAECSSQGHERQSEGS
B2: M-CSFWT: wild-type human M-CSF, disulfide-bond-linked homodimer which binds and activates c-FMS (protein)
chain: EEVSEYCSHMIGSGHLQSLQRLIDSQMETSCQITFEFVDQEQLKDPVCYLKKAFLLVQDIMEDTMRFRDNTPNAIAIVQLQELSLRLKSCFTKDYEEHDKACVRTFYETPLQLLEKVKNVFNETKNLLDKDWNIFSKNCNNSFAECSSQGHERQSEGS
B3: M-CSFC31S,M27R: M-CSF double mutant containing both C31S and M27R; monomeric, monospecific c-FMS antagonist (protein)
chain: EEVSEYCSHMIGSGHLQSLQRLIDSQRETSSQITFEFVDQEQLKDPVCYLKKAFLLVQDIMEDTMRFRDNTPNAIAIVQLQELSLRLKSCFTKDYEEHDKACVRTFYETPLQLLEKVKNVFNETKNLLDKDWNIFSKNCNNSFAECSSQGHERQSEGS

Biological target: T1, murine c-FMS
Assay: c-FMS phosphorylation assay in BMMs (western blot)
Format: cell-based
Settings: for c-FMS phosphorylation level: 0.5 nM murine M-CSFWT + 1 μM variant, versus control
Method: Phosphorylation assay—The experiment was performed on two cell types, BMMs and human peripheral blood CD14^+ monocytes, as follows: (i) BMMs from wild-type C57BL6 mice were purified by flushing the bone marrow from the femur and tibia as previously described (Levaot, N., Simoncic, P. D., Dimitriou, I.D., Scoffer, A., La Rose, J., Ng, A. H. M. et al. (2011) J. Clin. Invest. 121, 3244-3257). The cells were treated with ACK red cells lysis buffer (ThermoFisher Scientific, USA) and grown in complete α-MEM growth medium (Sigma-Aldrich, USA) containing 10% fetal bovine serum (FBS) (selected to not contain LPS to prevent macrophage differentiation), penicillin, streptomycin and L-glutamine. Recombinant murine M-CSF was added at a concentration of 40 ng/ml (Peprotech, Israel) for three days at 37° C. to induce adhesion and proliferation of monocytes. Then, 7×10^5 cells were transferred into a 6-well plate with complete α-MEM and 20 ng/ml murine M-CSF and RANKL (R&D Systems, USA) for 48 h. (ii) CD 14^+ monocytes (Lonza, Switzerland) were grown in complete α-MEM medium for five days in the presence of human M-CSF (20 ng/mL). Then, 3.5×10^5 cells were transferred to a 24-well plate with complete α-MEM medium, […] human M-CSF (R&D Systems, USA) and 20 ng/ml murine RANKL for 72 h. At this point, the medium was replaced with a starvation medium (α-MEM without FBS) for 4 h. After starvation, the cells were washed with PBS and incubated in a starvation medium containing 0.5 nM murine (BMMs) or human (CD14+) M-CSF and 100 nM (CD14^+ cells) or 1 μM (BMMs) of either M-CSFC31S or M-CSFC31S,M27R for 1 min. To test the phosphorylation levels in the absence of murine M-CSFWT, we incubated 0.5, 5, 10, 50, 1000 and 5000 nM of M-CSFC31S or M-CSFC31S,M27R and 0.5,5.10 nM of human M-CSFWT with the cells. The positive control contained 0.5 nM murine (BMMs) or human (CD14^+) M-CSF, and the negative control was incubated in starvation medium without any added protein. The cells were transferred to ice, and lysis buffer (deoxycholate 0.5%, […], 10 mM NaPO4, 1 mM sodium orthovanadate, 5 mM EDTA, pH 7.4, 5 mM EGTA, pH 7.4, 100 mM NaCl, 2% Triton X-100) was added. […] The images were quantified using ImageJ. The quantified intensity values of the phosphorylated c-FMS for each sample were divided by the total c-FMS intensity, and then by the β-actin expression intensity. […]
To determine whether M-CSFC31S,M27R binds and also antagonizes c-FMS, the phosphorylation of the receptor following incubation with different M-CSF variants was evaluated. […] The cells were lysed, and the expression and phosphorylation levels of c-FMS were evaluated using western blot. C-FMS phosphorylation level was quantified and normalized. […]

Molecule	c-FMS phosphorylation level (BMMs)	peak concentration of bell-shaped c-FMS phosphorylation curve (BMMs, 1 minute, without murine M-CSF) [nM]	c-FMS phosphorylation (agonist activity) (0.5-5000 nM without murine M-CSF)
B1	increased levels of phosphorylation		
B2		5	
B3	lower levels of phosphorylated c-FMS		very limited c-FMS phosphorylation at any concentration other than 5 μM; also recorded: did not exhibit phosphorylation capabilities in concentrations lower than 5 μM
